Source: patent publication US20030170203A1 (Human Genome Sciences, published 2003)

Columns and labels:
Assay in all cases: flow cytometry on transiently transfected cells
[1] = target: T1, LTβR on transiently transfected cells (UniProt P36941 31-435, limits assumed)
T1 construct: whole, on cells
Description: (§1) One million cells, in 0.1 ml of FACS buffer (PBS, 0.1% BSA, 0.1% NaN₃), were incubated with 0.1-1 microgram of protein or antibody at RT for 15 min. The cells were washed with 3 ml of FACS buffer, reacted with biotinylated primary antibody, and stained with PE-conjugated secondary antibody at RT for 15 min. Cells were then washed again, resuspended in 0.5 microgram/ml of propidium iodide, and live cells were gated and analyzed on a FACScan using the CellQuest software (BD Biosciences).

[2] = target: T2, CD27 on transiently transfected cells (UniProt P26842 20-260, limits assumed)
T2 construct: whole, on cells
T2 sequence (looked up): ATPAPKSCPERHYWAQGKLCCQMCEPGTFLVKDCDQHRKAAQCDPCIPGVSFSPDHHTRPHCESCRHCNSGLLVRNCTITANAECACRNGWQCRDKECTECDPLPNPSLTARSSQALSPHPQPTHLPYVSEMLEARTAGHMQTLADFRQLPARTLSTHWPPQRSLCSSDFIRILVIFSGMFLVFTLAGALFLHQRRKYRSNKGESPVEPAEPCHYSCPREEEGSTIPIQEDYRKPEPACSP
Description: as §1

[3] = target: T3, CD30 on transiently transfected cells (UniProt P28908 19-595, limits assumed)
T3 construct: whole, on cells
T3 sequence (looked up): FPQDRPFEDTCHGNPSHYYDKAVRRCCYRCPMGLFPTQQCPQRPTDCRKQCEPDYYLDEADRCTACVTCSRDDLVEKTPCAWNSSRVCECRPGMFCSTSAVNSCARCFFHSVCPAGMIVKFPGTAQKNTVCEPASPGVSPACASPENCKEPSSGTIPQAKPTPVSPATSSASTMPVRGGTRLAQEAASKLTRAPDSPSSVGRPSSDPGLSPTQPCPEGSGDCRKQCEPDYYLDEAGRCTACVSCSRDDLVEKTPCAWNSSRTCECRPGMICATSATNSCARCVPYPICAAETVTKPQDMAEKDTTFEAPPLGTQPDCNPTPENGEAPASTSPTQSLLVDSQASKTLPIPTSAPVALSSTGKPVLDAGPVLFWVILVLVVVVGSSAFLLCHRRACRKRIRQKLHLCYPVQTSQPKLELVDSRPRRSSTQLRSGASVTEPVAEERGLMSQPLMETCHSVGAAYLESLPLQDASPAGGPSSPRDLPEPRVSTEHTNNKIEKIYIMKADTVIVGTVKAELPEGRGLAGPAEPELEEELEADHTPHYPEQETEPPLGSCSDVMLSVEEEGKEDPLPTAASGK
Description: as §1

[4] = target: T4, DR5 on transiently transfected cells (UniProt O14763 56-440, limits assumed)
T4 construct: whole, on cells
Description: as §1

[5] = target: T5, DR6 on transiently transfected cells (UniProt O75509 42-655, limits assumed)
T5 construct: whole, on cells
T5 sequence (looked up): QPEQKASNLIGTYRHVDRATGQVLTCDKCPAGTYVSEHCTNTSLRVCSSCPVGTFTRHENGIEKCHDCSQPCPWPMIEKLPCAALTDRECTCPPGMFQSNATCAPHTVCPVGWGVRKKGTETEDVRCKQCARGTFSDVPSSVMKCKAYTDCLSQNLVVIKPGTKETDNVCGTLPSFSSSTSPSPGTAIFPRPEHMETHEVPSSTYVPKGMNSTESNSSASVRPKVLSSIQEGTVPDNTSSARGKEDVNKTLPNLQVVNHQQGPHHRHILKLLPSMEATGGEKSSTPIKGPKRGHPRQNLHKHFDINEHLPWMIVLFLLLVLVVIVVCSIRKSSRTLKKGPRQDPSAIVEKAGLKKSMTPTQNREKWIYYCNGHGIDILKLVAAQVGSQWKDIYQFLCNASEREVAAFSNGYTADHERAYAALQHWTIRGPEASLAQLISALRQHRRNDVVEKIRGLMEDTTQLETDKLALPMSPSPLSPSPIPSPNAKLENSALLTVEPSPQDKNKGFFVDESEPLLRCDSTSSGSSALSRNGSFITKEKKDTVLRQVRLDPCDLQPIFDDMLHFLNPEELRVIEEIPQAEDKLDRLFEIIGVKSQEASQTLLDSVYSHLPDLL
Description: as §1

[6] = target: T6, DcR2 on transiently transfected cells (UniProt Q9UBN6 56-386, limits assumed)
T6 construct: whole, on cells
T6 sequence (looked up): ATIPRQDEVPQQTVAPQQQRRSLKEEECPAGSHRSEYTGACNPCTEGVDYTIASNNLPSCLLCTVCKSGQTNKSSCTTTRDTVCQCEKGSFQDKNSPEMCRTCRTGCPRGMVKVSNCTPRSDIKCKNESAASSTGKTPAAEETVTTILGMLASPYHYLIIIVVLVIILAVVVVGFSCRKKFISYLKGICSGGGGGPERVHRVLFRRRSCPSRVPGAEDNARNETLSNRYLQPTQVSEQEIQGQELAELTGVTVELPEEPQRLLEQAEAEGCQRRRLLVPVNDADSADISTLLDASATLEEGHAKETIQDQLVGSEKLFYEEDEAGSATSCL
Description: as §1

[7] = target: T7, HveA on transiently transfected cells (UniProt Q92956 39-283, limits assumed)
T7 construct: whole, on cells
T7 sequence (looked up): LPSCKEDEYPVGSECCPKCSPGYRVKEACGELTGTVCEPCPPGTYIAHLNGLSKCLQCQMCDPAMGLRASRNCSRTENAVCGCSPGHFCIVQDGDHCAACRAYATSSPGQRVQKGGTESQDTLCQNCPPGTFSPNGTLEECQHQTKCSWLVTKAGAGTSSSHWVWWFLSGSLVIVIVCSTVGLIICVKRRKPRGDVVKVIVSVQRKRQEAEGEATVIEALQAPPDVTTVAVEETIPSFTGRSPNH
Description: as §1

Measured: binding result

T1 sequence (P36941 31-435 limits assumed): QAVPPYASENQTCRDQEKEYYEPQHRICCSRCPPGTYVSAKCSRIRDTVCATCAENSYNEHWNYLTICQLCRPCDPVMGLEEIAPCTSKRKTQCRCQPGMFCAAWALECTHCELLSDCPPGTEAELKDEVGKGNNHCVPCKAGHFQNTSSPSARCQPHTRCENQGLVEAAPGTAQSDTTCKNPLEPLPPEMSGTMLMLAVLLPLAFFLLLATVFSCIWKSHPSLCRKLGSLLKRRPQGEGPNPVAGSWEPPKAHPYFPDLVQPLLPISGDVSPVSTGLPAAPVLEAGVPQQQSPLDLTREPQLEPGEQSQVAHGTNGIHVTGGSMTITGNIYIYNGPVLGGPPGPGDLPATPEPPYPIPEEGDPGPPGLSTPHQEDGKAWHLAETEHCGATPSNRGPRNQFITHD

B1: FLAG-tagged soluble form of TNF-gamma-beta (aa 72-251) (ligand, human, UniProt O95150 72-251, looked up)
chain: LKGQEFAPSHQQVYAPLRADGDKPRAHLTVVRQTPTQHFKNQFPALHWEHELGLAFTKNRMNYTNKFLLIPESGDYFIYSQVTFRGMTSECSEIRQAGRPNKPDSITVVITKVTDSYPEPTQLLMGTKSVCEVGSNWFQPIYLGAMFSLQEGDKLMVNVSDISLVDYTKEDKTFFGAFLL
notes: also called FLAG-TL1β; FLAG-TNF-gamma-beta; not shown: FLAG tag of vector pFLAGCMV1
no binding: all assays above
